Experimental data as given in the domain aggregation screens of Martell et al. (2025).

Test: soluble fraction after stress (log2 fold change); higher = more stays soluble; pooled small domains, quantitative proteomics
Settings: stress: 75 degC
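Note: 20 min heating vs room temperature control held 20 min.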

HMNLDELGNRIREQRIKQRLKQQDIANALMLSAQAVSKWERGENAPDISVLPDLVKILGVSVDWLLTGP
soluble fraction (log2): -0.949

HMNLDPHVVGHRLRDLRTRRDLTLADVAAETDISVSTLSRLESGSRRATLELLVPLARTYRVTLDELVDA
soluble fraction (log2): -1.15

HMNLDPIKRKSEILSLFESHKNVKFNEIFFEKVNKEFTVLTFLIILELVKDNIIDFSQTQEGLIEFFTR
soluble fraction (log2): -0.00641

HMNLDVPGIIKRAKQALNLKRDSELAEFLGVSRATVTNWAARNSIDFRLLLDKLGNTVDYNWLLLGKGNPK
soluble fraction (log2): -1.11

HMNLDYKQFQVFNNIETLNTFTNLLSDNKIDFEVENNSKIFDPSFANNDFEKEYIVKIHPNDFEKVY
soluble fraction (log2): 0.0557

HMNLEIGAIIKSLRAKHKYTQEQLSAFLGVTPQAVSRWEAGNGYPDIELLPAIARFFEVSTDELLGL
soluble fraction (log2): -2.2

HMNLGDLYVIMEIAGQRDDVSARLMNREGQTFLVKTGTKLKSGDVVKEITPTYIKTDHDGEEAFLYF
soluble fraction (log2): -0.78

HMNLGETIYNLRKEKKLSQGDLAEQLSVSRQSVSKWENNSAVPDLDKLVKLSTIFGVSLDELVKG
soluble fraction (log2): -0.0337

HMNLGLTGDPSVLYSILLQRGDSSRADLQRQTGWSLSKTTLVLNQLLAQKLIVQVGAGRSTQYRVIN
soluble fraction (log2): -2.78

HMNLGNLAYESKVTKQVLNMIRPLHPEYSSDDITRAVKEILSEEGSRQRRVDEIARGALDVLMGNPR
soluble fraction (log2): 0.0661

HMNLLQAHLLRLESAALLAEVREVDRQLSRWLHPLTPQSDVAIIDERNWEAAVARLTELGVHIEEGRW
soluble fraction (log2): -3.05

HMNLNIGNNIKNIRKSKNMTQTDFAELMGLSRSYIGDLENNRSNPSIKTLEAIARALDVPIVALIN
soluble fraction (log2): -0.528

HMNLSSETLSEMEARIGQMGVVELQDRRAYLLQEQEGTQNPSRLKEIADELSAIQKALVALV
soluble fraction (log2): 0.705

HMNLTEIGQRIRDRREELGLSQDRLAKLGGLPRVTINQLETGSIGDLGVSKLLNLLDLLGLTLDA
soluble fraction (log2): -0.559

HMNLTLMDALKAAGLPVDGINLSMVNKMMEEQMPIDKTSLNQMYQLVQDNKDINVTTLVELKRLG
soluble fraction (log2): 0.0398

HMNLTSNDAYSRILNAIITSELRPGDTVTEIQLAQKFGFGRTPVREAIMRLENEGFIVSAERKKRVYIL
soluble fraction (log2): -2.97

HMNLTSSDIQKILSYALLADNSITLNSIEESMASLKLKKMSAEQLIELLEVSSMVLRNTNNSWSIL
soluble fraction (log2): -2.28

HMNMENIADKIGKIYESLPEDLKLMIKYRDIDDLTYDEIAVKADLPVGTVRSRLHRAREQLLKELEKN
soluble fraction (log2): -0.233

HMNMEPNWLKWAKQLAALAQNGLTYSDNPYEIERYEHIRRIAAEMMAEGFELDTKTILELFPREKG
soluble fraction (log2): -2.68

HMNMFDMRKTGARISQLRRAAGLTQAELAEKLGISYQAVSSWERGSNMPDIGKLLDLARILNTTVDALLSA
soluble fraction (log2): -1.19

HMNMGKRFKELRKERKFTQQQLADRIGLAPSAISSYESGARYPSYDVLIKYSKIFHVTTDYLLG
soluble fraction (log2): -2.79

HMNMKVGPVPANVVPANIKAHVSNNYSKYQIVQMMQNDKGYQVKLSNGTDLYYDKDGNILKTS
soluble fraction (log2): 0.0129

HMNMSVGAALRRRRNELGMTLRELADEAELTSGFLSQVENDRVSPSLKSLGRIAEVLRIPLFQLLS
soluble fraction (log2): -1.72

HMNMSVVEKVIQQISNPGRDSLIPILQAVQEEEGFISRESVIEIGKALDLPASKIYGVATFYNQFR
soluble fraction (log2): -0.206

HMNMTDVLVVNQTVRGGTQITESMLSVKKVDKSSLPDNYLKASLKDEVVGKYFDLGLTSGGVLTKDNISVS
soluble fraction (log2): -0.154

HMNMVSGHLQIKKGYYYVVLSYYDNRNKRHVKYVSTGLPEKGNKRKAEAALARVRSEFEPPQE
soluble fraction (log2): -3.95

HMNNDFIVKSTDSHKVNLRSQPDTHADIIKRLDDHTIVEKLKTVRKNWYLVQLKDTTTQGYVHKSQLERV
soluble fraction (log2): -0.357

HMNNDFVERLRKLFGHASMAEIARRIDVPHATIRNYFQGRLPAPEVLIKLARETGVSLNWLLTGEGKMFA
soluble fraction (log2): -1.19

HMNNENELSSIISKVLEENPAEKERFLNGEKKLAGFFMGKIMKATKGTADPKKAAQLLNEIL
soluble fraction (log2): 0.311

HMNNFNVVVGKAIKNSFNTRENYITINAGKVLGIKTDMGVINDKGIVGIVEKTSKDFATIQSVLNIKS
soluble fraction (log2): 0.177

HMNNGTDGLTTRLRRAILAGQYTFKERLPSERQLAEHFNTSRGTVRKVLQRLTTMNLVEQRAGSGTYVRYG
soluble fraction (log2): -0.302

HMNNIGSKIKSAKILNNLDDNQLSEITGIDKLQLRSIQDGQVNPTKMELEIISKALKLPTNYFTK
soluble fraction (log2): -0.115

HMNNIIYLIANKLDVGKRLDQFITIRTEFSRQRVINLIEDGYVKLNNKIINLKKYKIKGDEKIEITIPEIR
soluble fraction (log2): -1.32

HMNNKVAVKSGYYFEIFNKEEIPTTLAKTKQKVKINNIQYDLYQGMSLDDERKIDDMFGDRMGYSIDDY
soluble fraction (log2): -1.07

HMNNKVAVKSGYYFELFDKDEIPATLEKMKQKVKIDNIKYDLYQGTSLEDERKIDTMFGEKMGYSIDDYI
soluble fraction (log2): -0.0968

HMNNLVTRREVEILGWIKEGKTTSDIAGILSLSPFTVKNHVQNILKKLGARSRSHAVAQAINLGLLH
soluble fraction (log2): -1.4

HMNNPISMQKLRQVIRLYGQGKGTKSINSMLGVSRNTIKKYLQVYHSSGINYESFLAMSDKELSAVFLV
soluble fraction (log2): -0.509

HMNNQVTFSKFLNEVEDGRVVEVNIQGNNITGVLSDGSKFKTFSPNYPNLVEKLSEKGVSINASPL
soluble fraction (log2): 0.0934

HMNNTIKFSVDENNSGKRLDVYLTENINHLTRSFLKKLIEKEQVKLNKKVLTSPATKVKTKDQITINIIE
soluble fraction (log2): 0.0625

HMNNWYESSIKSLVEEYFREHGFSVVFDSSEFWDVFIEKYHKQIPSSQIALFDQVAAEARSYAFNKK
soluble fraction (log2): -0.0798

HMNPETLTNGSVVKMSKANLSDELIIDMINNSPARFDLSSGALRSLEGEGVSKAVIESMKRATSG
soluble fraction (log2): 0.283

HMNPETLTNSSVIKMSKANLSDELITDMILNSPVKFDLSAGAIKTLESEGVTPAVLESMKNAASK
soluble fraction (log2): 0.131

HMNPFTHEEINLMSIYNAAGTREGLIAALTEMWGYLDAEETELRELADSALAKLRGITDAEYAALELE
soluble fraction (log2): -1.19

HMNPGAYQVKAGEGLIGLSRRYNVPVDVLASVNNLNTTSSLRVGQTITIPTAAQVNRITQQAQ
soluble fraction (log2): 0.216

HMNPGHAERGKEIVEVFLRNNGELSMREIAEKSNITITQARRRVNKLLDQGIVEATAPVQSRNRKYRIK
soluble fraction (log2): 0.186

HMNPIEAQIEELKNKDQKTAYQALKHLLAISETRAEVSYYFDRFVALLQDPQSYVRTRGLLLIGA
soluble fraction (log2): 0.584

HMNPLLSAYLAEVERGLQGLTAGRRRLVLRELEAHLLDEAEARGLLTEEDMRALLMEKEPPERLAQEIAQ
soluble fraction (log2): -0.253

HMNPMLEPAGEIRLSDGVLLRWQSERLPGDDTVRGPGSLYELGLYRVKVRVSAPQQGVRESSVELAGWRQV
soluble fraction (log2): -0.0501

HMNPMRYLVVPSQETETWKEYLVSKEWLERKYRIETEGDNRAIPLSNLFPKIVPIELSNLEIIEKEAFS
soluble fraction (log2): -0.694

HMNPNEVQIPDLVNKTEDEAEQILKDLKLKLVVKSEEYNENIEKGKIISQDPPYQENYTIKEHSEISIVIS
soluble fraction (log2): 0.335

HMNPSRPASKEELLGLFEHLERALDAVTFFRPAEKKPVVVQTLRAMLTKASFTEQDIRTMRGVIAALEN
soluble fraction (log2): -1.59

HMNPYQDSILLWKSFDTPLTNEDFMGLSKEELRIARNEIYAAYGRIFTSQDLIDYFNSKPWYQGTTPA
soluble fraction (log2): -0.313

HMNQDQDLSRIKGIGPEMVDRLHAQGVETLEQIAAMQMEQLKKLDQQISGNGKAVREQWAEQAKQLLTT
soluble fraction (log2): 0.099

HMNQEFRMPNAIKGVELSEENKQQLTQGEKVFLEGMTSAKGSLFDAYVYIDQEKKTLAFDFPEK
soluble fraction (log2): 0.0813

HMNQKTQMTKQILAESLKKLMLHHSFEKITIKDITDAAGFIRPTFYNHFKDKYDLVEWIFTEEI
soluble fraction (log2): -0.287

HMNQKVRQLLSQAQAEMERKNYKQAIKLLDQALAIEPHSGELHFMKGYAWMSMGEFEKALESLYEARNYA
soluble fraction (log2): -1.4

HMNQPRQRKVIFELIDERNALERVLMHFAHLEKQVEKIDERKYQVTLYYDKEDETEILIRVLSFG
soluble fraction (log2): -2.01

HMNQTEKSKITHNELLKAAHSLFIEQGFNHTTITDIVTRAGYSTGIFYKHYKTKTDILVELWTNYIE
soluble fraction (log2): -2.27

HMNQWQLLSEDGAILGTRVLYHPHETEQPFTRSLSGVKIPAHVQSVTIRAGDLVHGFGGREIQMQLPPIV
soluble fraction (log2): -0.0313

HMNREENIQIGRDLLERELRKQGMDLQENLRQEVLLDGAKKLGFNNTDDLLAAIGDLKVTPAMFIGKIA
soluble fraction (log2): 0.0484

HMNREMLVHAIGQLKEKYASALELKYWHGFTEREIAAFLNISEKAANSRLVRGRVMLRKLLE
soluble fraction (log2): 0.0264

HMNREYELTAEESGQRLDKYLAGEMTDLSRSRIKELVQAGEILVNGKKSKVSYKVQKDDLIQVIVLPLE
soluble fraction (log2): -0.402

HMNRITEFVVPEGTKKIRADKLLAESFPDHSRSDFHRAFDASLVRLEGQPISKNRKISQGDVLVFEMPEI
soluble fraction (log2): 0.505

HMNRPQDLGEPYDGQFREHPEAWAFYAAQSPSYRRSASWWVLGAKQEVTRQRRLAALIDASAQGTRIPALT
soluble fraction (log2): -1.8

HMNRREFQFSEGSSNKFWSIELRDQSFIVHYGKIGTNGQAQEKTFATADAAKKEHDKLIAEKTKKGYVEVQ
soluble fraction (log2): -0.34

HMNRTKYYDFEGHPAKVVRLTLPVYLNKIGDEVVVYDSQKFAREASPISESQYNRMVAEIFQP
soluble fraction (log2): -0.233

HMNSEAVQNVIDKISALPDDITAKAKSQIEEARAAYEALSDSEKARVTNYSTLVAAEKKLASVVKD
soluble fraction (log2): 0.558

HMNSEERVLDTASKWLVKLDEGLDESEAQVLKVWLATPLHRDTFLEMVALWDKMSVLNELADIV
soluble fraction (log2): -1.65

HMNSISDSELKALIKNNYLKFLKRIASDEEIEYHFNQIKNKTILLDELDSIFQNSQEYKDLVEHNNKIQN
soluble fraction (log2): -0.268

HMNSKQELAYQTIRARIVDGSYGPGYRIVIDEVARELGVSPIPVREAVRRLEAEGLITYTRHAGARVVA
soluble fraction (log2): -0.219

HMNSLQLGSRGPTVSALQAKLNTMLVPSPRLVADGSFGPKTAQAVKAFQQMKRLVADGVVGPKTAAALGLS
soluble fraction (log2): -0.156

HMNSLQNNLKQARTRVGLTQGVLASQAGISRQAYSTLESGSANPSTEVALRLAQALQERVELLFYLPER
soluble fraction (log2): -0.948

HMNSNKFANAAAVAVAEKPADSYNPLFIYGPSGVGKTHLLYAIANEIHKHHPDYNIVYIKGDQFTNELIN
soluble fraction (log2): 0.088

HMNSNLSLTSYEEKIFFLLEKEKNLDELILESSFKAGEILSILMDLEIKHAIVSIPGGKYRRK
soluble fraction (log2): -3.85

HMNSNQESFENWLSANSWYNKDRAMRVFADSLGQELRNSGVSFEKALTQISAEVRKEFSHKFQ
soluble fraction (log2): -0.491

HMNSNSLSFSKFMQEVEAGRVIEVQIKGNDIQGELSDGSKFKTYSPNYPNLVDKLSENKVSIVATPL
soluble fraction (log2): -0.0878

HMNSNTIIFSQFLSEVDNGRVTQVQIQGNNIKGTLSNGKDFITYAPNDPNLIEKLTSKGVSISASPID
soluble fraction (log2): 0.0526
